Data reported in the nanobody polyreactivity screen of Harvey et al. (2022).

Assay: yeast display, Sf9 membrane polyspecificity reagent, FACS + sequencing; frameworks hold sequencing errors
Summary of the method: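 Using colony PCR, genes from sorted yeast display clones were amplified, then sequenced on MiSeq at 2 × 250 and filtered by CDR length. The clones had been stained with 10% biotinylated, detergent-solubilized Sf9 membrane reagent for 1 hour at 4 °C and sorted by FACS into low and high (top ~1%) gates on anti-HA and streptavidin fluorescence. Polyreactivity labels come from the gate of origin.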

Row | Sequence | polyreactivity (PSR sort gate)
1 | QVQLVDSGGGLVQAGGSLRLSCAASGITLYRYVMRWYRQAPGKESELVADISGRGTSTYYADSVKGPFTISRDNAKNTVYLQMNSLKPEDTAVYYCNAEYTKTGALVIPYTYYYAEDYWGQGTQVTVSS | low polyreactivity
2 | QVQLVDSGGGLVQAGGSLRLSCAASGLIFAYYAMGWYRKAPGKERELVAAISSVGSTYYADSVKGRFTISRDNAKNTVYLQMNSLKPEDTSVYYCAAALYPYYWPEYNYWGQGTQVTVSS | high polyreactivity
3 | QVQLVDSGGGLVQAGGSLRLSCAASGLIFSDYAMGWYRPAPGKERELVAAIRSGGRTYYADSVKGRFTISRDNATNTVYLEMNSLKPEDTAVYFCNKLYRRYPVPREYDYWGQGTQVTVSS | high polyreactivity
4 | QVQLVDSGGGLVQAGGSLRLSCAASGLIFYHNTMGWSRQAPGKEREFVASISQSGGSTYYADSVKGRFTISRDNAKNTVYLQMNSLKPEDTAVYYCAKKVRRWRTMDYWGQGTQVTVSS | high polyreactivity
5 | QVQLVDSGGGLVQAGGSLRLSCAASGLTFGFNAMGWYRQAPGKERELVAAISSGGSTYYADSVKGRFTISRDNAKNTVYLQMNSLKPEDTAVYYCATSVRQYGRTTYYYWGQGTQVTVSS | high polyreactivity
6 | QVQLVDSGGGLVQAGGSLRLSCAASGLTFRYYAMGWYRQAPGKERELVASISWSGASTYYADSVKGRFTISRDNAKNTVYLQMNSLKPEDTAVYYCNAGYFGSYDYWGQGTQVTVSS | high polyreactivity
7 | QVQLVDSGGGLVQAGGSLRLSCAASGLTFSKYAMGWYRQAPGKERELVATITRRGSSTYYADSVKGRFTISRDNAKNTVYLQMNSLKPEDTAVYYCNAVGVRRAIGYPSQTEYGYWGQGTQVTVSS | high polyreactivity
8 | QVQLVDSGGGLVQAGGSLRLSCAASGNILRKYAMGWYRQAPGKERELVAAISSSGGRTYYADSVKGRFTISRDNAKNTVYLQMYSLKPEDTAVYYCAKDPYGRLQPRPRFGYWGQGTQVTVTS | high polyreactivity
9 | QVQLVDSGGGLVQAGGSLRLSCAASGRIFDRNAMGWYRQAPGKERDLVARIDPGDDTNYADSVKGRFTISRDNAKNTVYLQMNSQKPEDTAVYYCATDPDYVLYRTAYYEYDYWGQGTQVTVSS | low polyreactivity
10 | QVQLVDSGGGLVQAGGSLRLSCAASGRIFGQYAMGWYRDATGKERELVAAISWRGGTTYYADSVKGRFTISRDNAKNTVYLQMNSLKPEDTAVFYCNADVWVYPYDYWGQGTQVTVSS | low polyreactivity
11 | QVQLVDSGGGLVQAGGSLRLSCAASGRIFKWTAMGWYRPAPGKERELVAAIRWSSGRTYYADSVKGRFTISRDNAKNTVYLQMNSLKPEDTAVSYCAANNGYGMDYWGQGTQVTVSS | high polyreactivity
12 | QVQLVDSGGGLVQAGGSLRLSCAASGRIFRPYAMGWYREAPRKERELVAAISFSGGSTYYADSVKGRFTISRDNAKNTVYLQMNSVKPEDTAVYYCNAVFINKYGKYGDWGQGTQVTVSS | high polyreactivity
13 | QVQLVDSGGGLVQAGGSLRLSCAASGRIFSRYAMGGYRQAPGKERQLVAAITIGGRTNYADSVKGRFTFSRDNAKNTVYLQMNSLKPEDSAVYYCAVVLYTRYPPRVRYYYWGQGTQVTVSW | high polyreactivity
14 | QVQLVDSGGGLVQAGGSLRLSCAASGRIFYQNAMGWYRQAPGKETELVADNSSGGSTYYADSVKGRFTISRDNAKNTVYLQMNSLKPEDNAVYYCNTPSGPGTVGSYRRKWYGYWGQGTQLTVSS | low polyreactivity
15 | QVQLVDSGGGLVQAGGSLRLSCAASGRIFYYYAMGWYRQAPGKEREFVAAINSRDGSTNYADSVKGRFTISRDNAKNTVYLQMNSLKPEDTAVYYCAAEGYRSWRGLRSRYYYWGQGTQVTVSS | high polyreactivity
16 | QVQLVDSGGGLVQAGGSLRLSCAASGRIIGGKAMGWYRLAPGKVREFVAAIRASGGSPHYADSVKGRFTISRDNAKNTVYLQRNSLTPEDTEVYYCNALSRNTHLYDYWGQGTHVTVSS | high polyreactivity
17 | QVQLVDSGGGLVQAGGSLRLSCAASGRPSVLMLMGWYRQAPGKERELVAAIDDSTDTTYYADSVKGRFTISRDNAKNTVYLQMNSLKPEDTAVYYCAAEEGYVKFSGSWSYGYDYWGQGTQVTVSS | high polyreactivity
18 | QVQLVDSGGGLVQAGGSLRLSCAASGRTFAYNDMGWYRQAPGKERELVAAISWSDGTTYYADSVKWRFTISRDNAKNTVYLQMNRLKPEDTAVYYCAAVSIYWGQGTQVTVSS | low polyreactivity
19 | QVQLVDSGGGLVQAGGSLRLSCAASGRTFGVYAIGWYRQAPGKERELVAAITSGGSTNYADSVKGLLTISRDNANNTVYLQMNSLKPEDTAVYYCAARYKAYWQLYDYWGQGTQVTVSS | high polyreactivity
20 | QVQLVDSGGGLVQAGGSLRLSCAASGRTFKRYDMGWYRQAPGKEREFVAAISWTGGSTYYADTVKGRFTISRDHAKNSVYLQMNSLKPEDTAVYYCARKFLWQGFVYWGQGTQVTVSS | low polyreactivity
21 | QVQLVDSGGGLVQAGGSLRLSCAASGRTFKRYDMGWYRQAPRKEREFVAAISWTGGSTYYADTVKGRFTISRDNEKNTVYLQMNSLKPEDTAVYYCARKFLWKGFDYWGQGTQVTVSS | low polyreactivity
22 | QVQLVDSGGGLVQAGGSLRLSCAASGRTFNWYAMGWYRQETRKERELVAAISSTGGSTYYADSVKGRFTISRDNAKNTVYLQMNSLKPEDTAVYYCAAALPGYGDYYYWGQGTQVTVSS | high polyreactivity
